This note sets out measurements from publication PMC3897949.

This experiment addresses PCAF HAT domain (amino acids 493-658), His-tagged (human), Q92831. As to the kind of experiment: SEC-MALS; protein at 2, 6 and 20 mg/ml on a size exclusion column (WTC-010S5); 50 mM phosphate buffer pH 7.0, 150 mM NaCl, 35°C; monomer to dimer. The settings on record: remark: other sources report otherwise. (SEC sorts molecules by how far they enter the pores of the column.)

B1: PCAF HAT domain (amino acids 493-658), His-tagged, Q92831 493-658 (domain or fragment)
chain: VIEFHVVGNSLNQKPNKKILMWLVGLQNVFSHQLPRMPKEYITRLVFDPKHKTLALIKDGRVIGGICFRMFPSQGFTEIVFCAVTSNEQVKGYGTHLMNHLKEYHIKHDILNFLTYADEYAIGYFKKQGFSKEIKIPKTKYVGYIKDYEGATLMGCELNPRIPYTE
B1 gave a stoichiometry N of 2.

As a reminder, the stoichiometry N is a count of units in the complex or per binding partner.
